Sequences and labels used below:
B1: BAG3 with deletion of both IPV motifs (recombinant) (natural protein)
chain: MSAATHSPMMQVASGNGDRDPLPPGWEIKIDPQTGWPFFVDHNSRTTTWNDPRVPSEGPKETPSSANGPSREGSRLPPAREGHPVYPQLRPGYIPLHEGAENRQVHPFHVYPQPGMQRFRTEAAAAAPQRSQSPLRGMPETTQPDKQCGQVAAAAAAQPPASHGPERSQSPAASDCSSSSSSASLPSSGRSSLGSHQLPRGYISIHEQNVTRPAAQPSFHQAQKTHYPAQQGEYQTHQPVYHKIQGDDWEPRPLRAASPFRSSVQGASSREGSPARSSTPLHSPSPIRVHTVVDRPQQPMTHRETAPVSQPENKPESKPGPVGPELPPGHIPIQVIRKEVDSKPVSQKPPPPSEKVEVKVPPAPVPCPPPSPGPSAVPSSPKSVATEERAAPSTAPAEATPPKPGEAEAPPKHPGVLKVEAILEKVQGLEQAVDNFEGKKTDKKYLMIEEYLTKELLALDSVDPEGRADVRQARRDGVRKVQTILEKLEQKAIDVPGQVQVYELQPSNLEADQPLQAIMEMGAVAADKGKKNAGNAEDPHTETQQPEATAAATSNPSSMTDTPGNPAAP
B2: BAG3^WT (recombinant) (natural protein)
chain: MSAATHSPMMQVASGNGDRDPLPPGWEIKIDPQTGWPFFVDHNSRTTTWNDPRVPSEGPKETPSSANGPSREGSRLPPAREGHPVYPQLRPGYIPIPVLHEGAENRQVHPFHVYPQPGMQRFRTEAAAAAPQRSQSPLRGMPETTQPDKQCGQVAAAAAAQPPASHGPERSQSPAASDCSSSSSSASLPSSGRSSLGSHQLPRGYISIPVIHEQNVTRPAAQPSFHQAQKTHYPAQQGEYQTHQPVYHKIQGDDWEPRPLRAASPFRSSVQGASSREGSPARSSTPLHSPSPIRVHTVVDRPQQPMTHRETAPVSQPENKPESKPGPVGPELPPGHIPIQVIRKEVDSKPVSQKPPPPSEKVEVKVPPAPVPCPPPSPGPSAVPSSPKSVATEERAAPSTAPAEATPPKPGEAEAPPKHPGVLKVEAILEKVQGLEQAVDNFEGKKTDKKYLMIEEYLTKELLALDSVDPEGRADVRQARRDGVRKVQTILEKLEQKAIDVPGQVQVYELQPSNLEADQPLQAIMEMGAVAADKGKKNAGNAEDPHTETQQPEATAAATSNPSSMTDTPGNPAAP
B3: BAG3 with complete deletion of the IPV2 motif (recombinant) (natural protein)
chain: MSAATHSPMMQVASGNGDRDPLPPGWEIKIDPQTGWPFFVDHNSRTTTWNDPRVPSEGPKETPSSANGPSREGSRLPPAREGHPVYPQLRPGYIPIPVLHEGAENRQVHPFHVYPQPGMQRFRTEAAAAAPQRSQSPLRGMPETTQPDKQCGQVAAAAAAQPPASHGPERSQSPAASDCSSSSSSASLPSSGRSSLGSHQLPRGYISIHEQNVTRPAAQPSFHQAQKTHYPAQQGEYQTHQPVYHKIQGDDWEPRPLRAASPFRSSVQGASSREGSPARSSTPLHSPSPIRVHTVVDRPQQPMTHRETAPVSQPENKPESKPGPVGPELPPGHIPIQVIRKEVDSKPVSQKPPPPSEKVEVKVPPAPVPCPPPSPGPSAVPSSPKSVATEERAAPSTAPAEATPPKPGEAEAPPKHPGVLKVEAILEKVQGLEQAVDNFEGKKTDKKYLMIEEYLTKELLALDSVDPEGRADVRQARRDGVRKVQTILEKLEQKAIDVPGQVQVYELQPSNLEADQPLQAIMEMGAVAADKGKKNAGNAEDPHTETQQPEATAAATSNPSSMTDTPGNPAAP

The text below walks through data of publication PMC6297355 (2018).

In the experiment the target is HSPB1c/Hsp27c (model human HSPB fragment) (human, UniProt P04792 80-176). Nature of the experiment: ITC. For orientation: Isothermal titration calorimetry measures the heat released or taken up as one component is titrated into another.
Chain of HSPB1c/Hsp27c (model human HSPB fragment) (P04792 80-176): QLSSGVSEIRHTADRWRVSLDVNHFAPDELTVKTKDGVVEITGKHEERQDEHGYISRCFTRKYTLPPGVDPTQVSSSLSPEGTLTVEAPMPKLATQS
Turning to B1, the Kd is greater than 100 µM.

With B2, the Kd was 0.49 µM.

Regarding B3, the Kd amounted to 2 µM.

As usually defined, the Kd is the concentration at which binding is half-saturated.
